In patent publication US20050118674A1, “Engineering of Controlled Deamidation Rates in Peptides, Proteins, and Similar Structures” (priority 2003, published 2005):
Where no end group is shown, it is not given here.

Test: First-order nonenzymatic deamidation of pentapeptides in Tris buffer
Assay type: physicochemical
Settings: 0.15 M Tris HCl; for First-Order Deamidation Halftimes of GlyXxxAsnYyyGly: pH 7.4, 37.0° C., Asn pentapeptides; for First-Order Deamidation Halftimes of GlyXxxGlnYyyGly: pH 7.4, 37.0 ° C., Gln pentapeptides, 52 values measured, rest derived from surface fitting
Description: One of the discoveries made was that the sequence dependence of deamidation is much richer and covers a wider range than previously thought. In 37° C., pH 7.4, 0.15 M Tris buffer, the combination of XxxAsnYyy and XxxGlnYyy sequences where Xxx and Yyy are any of the naturally occuring amino acids covers a range from less than 1 day to over 15,000 days with the entire range in between available.
It is based on pentapeptide rates measure in 37° C., pH 7.4, 0.15 M Tris buffer. The applicability of a pentapeptide model to sequence dependence was verified in a separate set of experiments. All values listed in this table are experimental except for the four values in boxes, which were estimated from the rest of the data.
It is also based on pentapeptide rates measure in 37° C., pH 7.4, 0.15 M Tris buffer. In this case, the 52 values shown in bold were measured, and the rest of the values were derived from surface fitting.
Deamidation rates are affected by a wide variety of parameters, including, pH, Temperature, Ionic Strength, and Buffer Ions. These rates are measured under pH and Temperature conditions that are applicable to biological systems. The buffer type and concentration were chosen to minimize ion affects to the extent possible given the experimental limitations. Modification of these conditions will change the rates in Tables 1 and 2. As long as the conditions are not taken to extremes (i.e. high temperature, or strongly acidic or basic conditions) the qualitative sequence dependence should remain the same and the rates reported here can be used with necessary adjustments.

Substance | First-Order Deamidation Halftimes of GlyXxxAsnYyyGly [days] | First-Order Deamidation Halftimes of GlyXxxGlnYyyGly [days]
GlyAlaAsnAlaGly (GANAG; printed: GlyAlaAsnAlaGly) | 22.5 | –
GlyAlaAsnAmCysGly | 40.6 | –
GlyAlaAsnArgGly (GANRG; printed: GlyAlaAsnArgGly) | 62.4 | –
GlyAlaAsnAspGly (GANDG; printed: GlyAlaAsnAspGly) | 31.9 | –
GlyAlaAsnCysGly (GANCG; printed: GlyAlaAsnCysGly) | 63.7 | –
GlyAlaAsnGluGly (GANEG; printed: GlyAlaAsnGluGly) | 74.1 | –
GlyAlaAsnGlyGly (GANGG; printed: GlyAlaAsnGlyGly) | 1.05 | –
GlyAlaAsnHisGly (GANHG; printed: GlyAlaAsnHisGly) | 9.3 | –
GlyAlaAsnIleGly (GANIG; printed: GlyAlaAsnIleGly) | 300 | –
GlyAlaAsnLeuGly (GANLG; printed: GlyAlaAsnLeuGly) | 124 | –
GlyAlaAsnLysGly (GANKG; printed: GlyAlaAsnLysGly) | 55.9 | –
GlyAlaAsnMetGly (GANMG; printed: GlyAlaAsnMetGly) | 59.2 | –
GlyAlaAsnPheGly (GANFG; printed: GlyAlaAsnPheGly) | 65.6 | –
GlyAlaAsnProGly (GANPG; printed: GlyAlaAsnProGly) | 7370 | –
GlyAlaAsnSerGly (GANSG; printed: GlyAlaAsnSerGly) | 14.9 | –
GlyAlaAsnThrGly (GANTG; printed: GlyAlaAsnThrGly) | 43.5 | –
GlyAlaAsnTrpGly (GANWG; printed: GlyAlaAsnTrpGly) | 130 | –
GlyAlaAsnTyrGly (GANYG; printed: GlyAlaAsnTyrGly) | 73.9 | –
GlyAlaAsnValGly (GANVG; printed: GlyAlaAsnValGly) | 254 | –
GlyAlaGlnAlaGly (GAQAG; printed: GlyAlaGlnAlaGly) | – | 5300

Substance | First-Order Deamidation Halftimes of GlyXxxAsnYyyGly [days] | First-Order Deamidation Halftimes of GlyXxxGlnYyyGly [days]
GlyAlaGlnArgGly (GAQRG; printed: GlyAlaGlnArgGly) | – | 7200
GlyAlaGlnAspGly (GAQDG; printed: GlyAlaGlnAspGly) | – | 7400
GlyAlaGlnCysGly (GAQCG; printed: GlyAlaGlnCysGly) | – | 1900
GlyAlaGlnGluGly (GAQEG; printed: GlyAlaGlnGluGly) | – | 7300
GlyAlaGlnGlyGly (GAQGG; printed: GlyAlaGlnGlyGly) | – | 610
GlyAlaGlnHisGly (GAQHG; printed: GlyAlaGlnHisGly) | – | 5500
GlyAlaGlnIleGly (GAQIG; printed: GlyAlaGlnIleGly) | – | 6200
GlyAlaGlnLeuGly (GAQLG; printed: GlyAlaGlnLeuGly) | – | 6100
GlyAlaGlnLysGly (GAQKG; printed: GlyAlaGlnLysGly) | – | 5700
GlyAlaGlnMetGly (GAQMG; printed: GlyAlaGlnMetGly) | – | 4400
GlyAlaGlnPheGly (GAQFG; printed: GlyAlaGlnPheGly) | – | 7500
GlyAlaGlnProGly (GAQPG; printed: GlyAlaGlnProGly) | – | 9300
GlyAlaGlnSerGly (GAQSG; printed: GlyAlaGlnSerGly) | – | 5200
GlyAlaGlnThrGly (GAQTG; printed: GlyAlaGlnThrGly) | – | 5100
GlyAlaGlnTrpGly (GAQWG; printed: GlyAlaGlnTrpGly) | – | 14000
GlyAlaGlnTyrGly (GAQYG; printed: GlyAlaGlnTyrGly) | – | 10000
GlyAlaGlnValGly (GAQVG; printed: GlyAlaGlnValGly) | – | 6400
GlyAmCysAsnAlaGly (CNAG; not fully specified (N-terminus); printed as GlyAmCysAsnAlaGly) | 21.5 | –
GlyAmCysAsnAmCysGly | 39.3 | –
GlyAmCysAsnArgGly (CNRG; not fully specified (N-terminus); printed as GlyAmCysAsnArgGly) | 58.8 | –

Substance | First-Order Deamidation Halftimes of GlyXxxAsnYyyGly [days] | First-Order Deamidation Halftimes of GlyXxxGlnYyyGly [days]
GlyAmCysAsnAspGly (CNDG; not fully specified (N-terminus); printed as GlyAmCysAsnAspGly) | 32.9 | –
GlyAmCysAsnGluGly (CNEG; not fully specified (N-terminus); printed as GlyAmCysAsnGluGly) | 45 | –
GlyAmCysAsnGlyGly (CNGG; not fully specified (N-terminus); printed as GlyAmCysAsnGlyGly) | 1.14 | –
GlyAmCysAsnHisGly (CNHG; not fully specified (N-terminus); printed as GlyAmCysAsnHisGly) | 10.9 | –
GlyAmCysAsnIleGly (CNIG; not fully specified (N-terminus); printed as GlyAmCysAsnIleGly) | 250 | –
GlyAmCysAsnLeuGly (CNLG; not fully specified (N-terminus); printed as GlyAmCysAsnLeuGly) | 100 | –
GlyAmCysAsnLysGly (CNKG; not fully specified (N-terminus); printed as GlyAmCysAsnLysGly) | 48.9 | –
GlyAmCysAsnMetGly (CNMG; not fully specified (N-terminus); printed as GlyAmCysAsnMetGly) | 56.5 | –
GlyAmCysAsnPheGly (CNFG; not fully specified (N-terminus); printed as GlyAmCysAsnPheGly) | 63.3 | –
GlyAmCysAsnProGly (CNPG; not fully specified (N-terminus); printed as GlyAmCysAsnProGly) | 3900 | –
GlyAmCysAsnSerGly (CNSG; not fully specified (N-terminus); printed as GlyAmCysAsnSerGly) | 15.4 | –
GlyAmCysAsnThrGly (CNTG; not fully specified (N-terminus); printed as GlyAmCysAsnThrGly) | 41.7 | –
GlyAmCysAsnTrpGly (CNWG; not fully specified (N-terminus); printed as GlyAmCysAsnTrpGly) | 81.3 | –
GlyAmCysAsnTyrGly (CNYG; not fully specified (N-terminus); printed as GlyAmCysAsnTyrGly; also: glycinamide shown before Cys, linkage not given here) | 78.8 | –
GlyAmCysAsnValGly (CNVG; not fully specified (N-terminus); printed as GlyAmCysAsnValGly; also: glycinamide shown before Cys, linkage not given here) | 215 | –
GlyArgAsnAlaGly (GRNAG; printed: GlyArgAsnAlaGly) | 24.4 | –
GlyArgAsnAmCysGly | 42.3 | –
GlyArgAsnArgGly (GRNRG; printed: GlyArgAsnArgGly) | 67.4 | –
GlyArgAsnAspGly (GRNDG; printed: GlyArgAsnAspGly) | 34.7 | –
